Data: patent publication US20170267762A1 (APOLLOMICS, published 2017)

B1: humanized 7A4-hIgG1 (antibody)
heavy: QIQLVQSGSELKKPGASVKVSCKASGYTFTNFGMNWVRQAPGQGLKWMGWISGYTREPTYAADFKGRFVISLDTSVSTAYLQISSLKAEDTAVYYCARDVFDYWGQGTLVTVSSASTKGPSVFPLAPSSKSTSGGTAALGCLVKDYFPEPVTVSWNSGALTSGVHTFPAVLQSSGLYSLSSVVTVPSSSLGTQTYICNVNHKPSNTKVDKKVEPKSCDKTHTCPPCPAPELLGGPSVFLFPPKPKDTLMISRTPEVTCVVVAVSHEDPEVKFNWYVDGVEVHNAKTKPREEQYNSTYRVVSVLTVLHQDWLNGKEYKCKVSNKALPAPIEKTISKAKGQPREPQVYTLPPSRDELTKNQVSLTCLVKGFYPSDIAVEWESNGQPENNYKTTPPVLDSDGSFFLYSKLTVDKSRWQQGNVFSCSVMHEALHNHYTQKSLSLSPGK
light: DIVLTQSPASLAVSPGQRATITCRASESVDNYGYSFMNWFQQKPGQPPKLLIYRASNLESGVPARFSGSGSRTDFTLTINPVEANDTANYYCQQSNADPTFGQGTKLEIKRTVAAPSVFIFPPSDEQLKSGTASVVCLLNNFYPREAKVQWKVDNALQSGNSQESVTEQDSKDSTYSLSSTLTLSKADYEKHKVYACEVTHQGLSSPVTKSFNRGEC
notes: IgG1 constant region with D265A, already in the entry; also called h7A4-IgG1; hu-7A4-D265A-hIgG1
B2: humanized 7A4D-hIgG4 (antibody, V domains shown)
VH: QIQLVQSGSELKKPGASVKVSCKASGYTFTNFGMNWVRQAPGQGLKWMGWISGYTREPTYAADFKGRFVISLDTSVSTAYLQISSLKAEDTAVYYCARDVFDYWGQGTLVTVSS
VL: DIVLTQSPASLAVSPGQRATITCRASESVDNYGYSFMNWFQQKPGQPPKLLIYRASNLESGVPARFSGSGSRTDFTLTINPVEADDTANYYCQQSNADPTFGQGTKLEIKR
notes: also called h7A4D
B3: humanized 7A4-hIgG4 (antibody)
heavy: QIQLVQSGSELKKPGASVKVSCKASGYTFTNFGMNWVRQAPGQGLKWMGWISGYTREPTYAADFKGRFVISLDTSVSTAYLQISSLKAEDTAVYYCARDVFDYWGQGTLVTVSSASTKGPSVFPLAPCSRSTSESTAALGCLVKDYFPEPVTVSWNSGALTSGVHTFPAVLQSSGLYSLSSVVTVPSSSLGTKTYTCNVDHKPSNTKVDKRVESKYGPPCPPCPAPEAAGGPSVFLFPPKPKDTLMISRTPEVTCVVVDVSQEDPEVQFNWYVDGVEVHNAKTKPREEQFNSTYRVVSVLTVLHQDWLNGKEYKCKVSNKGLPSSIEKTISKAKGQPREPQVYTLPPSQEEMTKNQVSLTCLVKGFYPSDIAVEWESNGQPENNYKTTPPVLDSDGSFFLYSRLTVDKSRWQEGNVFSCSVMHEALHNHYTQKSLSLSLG
light: B1 light
notes: IgG4 constant region with F234A and L235A, already in the entry; also called h7A4-IgG4; 7A4-huIgG4

Assays:
[1] = biological target: T1, human PD-1 extracellular domain fused with mouse Fc (PD-1-mFc) (human, UniProt Q15116 25-170); assay: ELISA ligand blockage: biotinylated PD-L1-mFc binding to plate-bound PD-1, OD450 (methods similar to Example 2: PD-1-mFc coated)
T1 construct: extracellular domain; not used because of the label; also called hPD-1-mFc; human PD-1-mouse Fc fusion protein
T1 sequence (Q15116 25-170): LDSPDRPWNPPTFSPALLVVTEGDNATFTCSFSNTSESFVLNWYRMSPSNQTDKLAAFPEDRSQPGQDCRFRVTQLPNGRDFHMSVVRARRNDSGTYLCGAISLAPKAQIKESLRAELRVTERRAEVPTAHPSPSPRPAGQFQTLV
Description: PD-1-mFc antigen (CrownBio) was suspended in PBS (Hyclone,Cat No:SH30256.01B) buffer (2 ug/ml, 100 ul/ well) and coated on the 96 well plate (costar, Cat No.:9018) 4° C. overnight. Plates were washed 3 times using washing buffer: PBS+0.05% Tween 20(Sigma, Cat No.:P1379). 200 ul of blocking buffer (PBS+1%BSA(Roche, Cat No.:738328)), was added to each well, incubated at 37° C. for 1 hour, and washed 3 times. Various concentrations (suitable dilutions of hybridoma supernatant in PBS) of the anti-PD-1 Abs were added to the wells (100 μl/well) and incubated at 37° C. for 1 hour. […] Secondary antibody (Avidin HRP eBioscience cat No.:E07418-1632, 1:500, 100 ul/well) was added, incubated at 37 ° C. for 0.5 hour, and washed 3 times. TMB (Sigma, Cat No.: T0440, 100 ul/well) was added, and incubated for 3 min at RT. To stop the reaction, 2N H2SO4 (100 ul/well), was added. The colorimetric signals were developed and read at 450 nm using a Auto Plate SpectraMax Plus (Supplier: Molecular Devices; Model: MNR0643; Software: SoftMax Pro v5.4).

[2] = biological target: T2, human PD-1 on cells (293T cells transfected with human PD-1) (human, UniProt Q15116 25-288); assay: FACS ligand blockage: biotin-labeled PD-L1 binding to 293T cells expressing human PD-1, MFI
T2 construct: whole, on cells; Also used as the target for the functional rows, where PD-1 stands on human T cells
T2 sequence (Q15116 25-288): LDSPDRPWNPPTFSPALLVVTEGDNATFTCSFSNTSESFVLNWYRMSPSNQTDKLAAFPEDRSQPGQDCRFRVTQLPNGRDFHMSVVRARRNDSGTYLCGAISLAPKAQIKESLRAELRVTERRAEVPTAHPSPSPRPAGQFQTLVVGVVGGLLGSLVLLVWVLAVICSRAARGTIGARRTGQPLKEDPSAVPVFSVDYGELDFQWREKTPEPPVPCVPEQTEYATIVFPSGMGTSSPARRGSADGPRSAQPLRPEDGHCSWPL
Description: Various concentrations of the testing hybridoma antibodies were added to the cell suspension and incubated at 4° C. for 60 minutes in 96 well plates. […] Plates were washed 3 times, and mouse anti-biotin PE antibody (Biolgend, cat# 409004) was added. Flow cytometric analyses were performed using a FACS Array.

[3] = biological target: T2, human PD-1 on cells (293T cells …); assay: FACS binding to 293T cells expressing human PD-1, MFI
Description: The cells were incubated with the indicated antibody (20 ug/ml with the dilution of ⅕) at 4° C. for 1 h. Cells were washed three times with FACS buffer. A secondary antibody (PE Goat anti-mouse: 1:200; PE mouse anti-human: 1:10) was added to the cells at 100 ul/well, and incubated at 4° C. for 40min. Cells were washed three times with FACS buffer and analyzed by FACS Array.

[4] = biological target: T3, human PD-1 extracellular domain fused with human Fc tag (hPD-1-hFc) (human); assay: ELISA binding to plate-bound PD-1, OD450 (methods similar to Example 2: plate coated with PD1-hFc)
T3 construct: also called human PD-1-hFc
T3 sequence (chain, as listed by the source limits assumed): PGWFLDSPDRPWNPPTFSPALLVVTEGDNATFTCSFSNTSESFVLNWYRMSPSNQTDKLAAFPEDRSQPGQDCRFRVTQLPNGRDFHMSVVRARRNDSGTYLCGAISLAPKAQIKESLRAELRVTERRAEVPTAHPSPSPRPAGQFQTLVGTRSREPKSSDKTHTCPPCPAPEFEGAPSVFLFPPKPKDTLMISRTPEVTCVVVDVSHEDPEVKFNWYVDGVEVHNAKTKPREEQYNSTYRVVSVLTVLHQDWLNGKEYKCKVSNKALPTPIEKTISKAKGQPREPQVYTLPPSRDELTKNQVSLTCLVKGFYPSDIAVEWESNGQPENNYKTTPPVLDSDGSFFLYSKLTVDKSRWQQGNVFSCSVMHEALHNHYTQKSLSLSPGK
Description: ELISA binding analysis was conducted based on human PD-1-hFc Protein. 96-well plates (Costar, Cat No:9018) were coated with 100 μL of 2 μg/ml PD1-hFc (CrownBio) in coating buffer (PBS, Hyclone, Cat No:SH30256.01B) overnight at 4° C. The wells were aspirated and non-specific binding sites were blocked by adding 200 μL of blocking buffer with 1% (w/v) of bovine serum albumin (BSA, Roche, Cat No: 738328) and incubating for 1 hour at 37° C. After the plates are washed three times with wash buffer (PBS with 0.05%(v/v) Tween20 (Sigma, Cat No:P1379), 100 μL/well of a suitable dilutions of hybridoma supernatant in blocking buffer were added and incubated at room temperature for 1 hour. The plates were washed and incubated with 100 μL/well of Goat anti-Mouse IgG (H+L) (Thermo, Cat No: 31432) in blocking buffer for 60 min. After the plates were washed, 100 μL/well of substrate solution (TMB(eBioscience, Cat No:00-4201-56) was added and the plates were incubated for 2min at room temperature. 100 μL/well of stop solution (2N H2SO4) was added to stop the reaction. The colorimetric signals were developed and read at 450 nm using a Auto Plate SpectraMax Plus (Supplier: Molecular Devices; Model: MNR0643; Software: SoftMax Pro v5.4).

[5] = biological target: T4, human PD-1 (construct not stated) (human, UniProt Q15116 25-167, limits assumed); assay: SPR (Biacore 3000), antibody captured on the chip, PD-1 as analyte, 1:1 Langmuir fit
T4 construct: also called PD-1 analyte
T4 sequence (Q15116 25-167 limits assumed): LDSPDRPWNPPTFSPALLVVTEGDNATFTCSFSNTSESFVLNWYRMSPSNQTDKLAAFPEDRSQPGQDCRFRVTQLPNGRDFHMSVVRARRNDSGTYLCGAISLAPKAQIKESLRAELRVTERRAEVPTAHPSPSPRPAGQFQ
Description: To characterize the binding characteristics of the humanized antibodies, the binding kinetics between PD-1 and PD-1 antibodies were measured by Biacore3000 and recorded with a data collection rate of 1 Hz. The polyclonal rabbit anti-mouse IgG (GE, BR-1008-38) was diluted with 10 mM pH 5.0 sodium acetate and immobilized onto reference and experiment flow cells of a CMS biosensor chip to around 15000 RU using an amine coupling kit (GE, BR10050). In the beginning of each cycle, diluted test antibody (1.5 μg/mL) was injected over experiment flow cell for 1 minute to be captured. PD-1 analyte series were prepared by diluting the stocks with running buffer to 100nM followed by 2× serial dilution in the same buffer down to 0.78nM. Analytes were injected in series over the reference and experiment flow cells for 3 minutes at a flow rate of 30 μL/minute. Then running buffer (PBS with 0.05% P20) was allowed to flow over for 10 minutes at a flow rate of 30 μL/minute. At the end of each cycle, the biosensor surface was regenerated with 3 minutes injection of 10 mM pH1.7 Glycine-HC1 buffer at a flow rate of 10 μL/minute. For each analyte sample injection (i.e. each cycle), binding responses obtained from the experimental biosensor surface were double referenced by subtracting simultaneously recorded responses from the reference surface followed by additional subtraction of responses from a single referenced running buffer sample. The association and dissociation rate constants (ka and kd) were determined simultaneously by fitting double-referenced sensorgrams of the entire titration series to Langmuir model (1:1) using Biaevaluation 4.0 software. The dissociation constant, KD, was calculated from the determined rate constants by the relation KD =kd/ka. […] The Biocore binding curves are shown in FIGS. 10 and 17A, top panel, and the quantified binding data are summarized in FIGS. 10 and 17A, bottom panel.

[6] = biological target: T2, human PD-1 on cells (293T cells …); assay: FACS ligand blockage: PD-L1 binding to 293T-PD1 cells

Binder	IC50 [1]	IC50 [2]	EC50 [3]	EC50 [4]	Ka [5]	Kd [5]	koff [5]	kon [5]	IC50 [6]
B1	0.763 µg/mL	0.00761 µg/mL	0.0332 µg/mL	0.0331 µg/mL	9.82e+09 M⁻¹	0.102 nM	0.000212 s⁻¹	2.09e+06 M⁻¹ s⁻¹	–
B2	–	–	–	–	2.55e+09 M⁻¹	0.391 nM	0.000532 s⁻¹	1.36e+06 M⁻¹ s⁻¹	0.0258 µg/mL
B3	0.886 µg/mL	0.0169 µg/mL	0.0621 µg/mL	0.0707 µg/mL	2.93e+09 M⁻¹	0.342 nM	0.000498 s⁻¹	1.46e+06 M⁻¹ s⁻¹	–
